The text below walks through data of patent publication US7135457 (CYTOGEN, dated 2006).

For assay [1], the target named is T1, human D2H transporter receptor domain, amino acid residues 387-685, His-tag fusion protein (human, UniProt Q07837 387-685).
T1 construct: Expressed as His-tag fusion, purified under denaturing conditions, coated on plates; not shown: poly-histidine tag (pET His-tag) at the NH2-terminal end
T1 sequence: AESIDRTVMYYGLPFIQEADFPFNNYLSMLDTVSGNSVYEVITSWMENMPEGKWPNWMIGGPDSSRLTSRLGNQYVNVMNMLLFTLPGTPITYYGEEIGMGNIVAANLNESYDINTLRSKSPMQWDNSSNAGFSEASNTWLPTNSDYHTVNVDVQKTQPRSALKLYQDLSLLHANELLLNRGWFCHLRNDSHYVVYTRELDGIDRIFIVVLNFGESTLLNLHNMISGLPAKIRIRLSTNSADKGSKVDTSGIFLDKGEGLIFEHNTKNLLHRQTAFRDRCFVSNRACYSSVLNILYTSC
The experiment in a line: phage ELISA, coated D2H domain. The procedure: (§1) 6.6. Receptor ELISA Procedure 96 well plates were coated overnight with GIT receptor, BSA and, optionally, IDE (insulin degrading enzyme, an irrelevant His-fusion protein) or hTF. The plates were blocked for one hour with 0.5% BSA-PBS. After clarification, the amplified phage were diluted 1:100 in 1% BSA plus 0.05% Tween 20 in PBS and added to the plates. Following incubation of the plates on a rotator for 1 to 2 hours, the plates were washed 5 times with 1% BSA plus 0.05% Tween 20 in PBS. […] After the plates were washed 5 times, as described above, TMB substrate was added to the wells. The plates were read at 650 nm absorbance.
(§2) Binding to fixed Caco-2 cells, D2H and BSA was examined.
Background: ELISA stands for enzyme-linked immunosorbent assay.

In assay [2] the target is T1, human D2H transporter receptor domain, …. The experiment in a line: phage ELISA, OD on D2H over OD on BSA. The procedure: as §1, §2
Assay [3] deals with T2, human intestinal peptide-associated transporter HPT1 receptor domain, amino acid residues 29-273, His-tag … (human, UniProt Q12864 29-273).
T2 construct: Expressed as His-tag fusion, purified under denaturing conditions, coated on plates; not shown: poly-histidine tag (pET His-tag) at the NH2-terminal end
T2 sequence: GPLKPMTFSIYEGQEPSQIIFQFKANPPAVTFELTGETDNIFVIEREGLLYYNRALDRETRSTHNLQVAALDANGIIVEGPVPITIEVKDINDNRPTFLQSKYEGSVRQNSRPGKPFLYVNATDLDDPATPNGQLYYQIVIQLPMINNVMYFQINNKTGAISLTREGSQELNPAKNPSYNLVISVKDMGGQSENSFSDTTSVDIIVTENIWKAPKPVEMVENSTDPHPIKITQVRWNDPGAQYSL
The assay can be described thus: phage ELISA, coated HPT1 domain.

The target in assay [4] is T2, human intestinal peptide-associated …. The assay can be described thus: phage ELISA, OD on HPT1 over OD on BSA.
The target is the same in assay [5]. The experiment in a line: phage ELISA, OD on HPT1 over OD on BSA. The procedure: as §1
The source holds these as a separate data set.

B1: phage DCX42 (peptide)
peptide: RYSGLSPRDNGPACSQEATLEGCGAQRLMSTRRKGRNSRPGWTL
notes: pIII and flanks not included
As for B1, in assay [1], the OD amounted to 0.158 OD 650 nm. The molecule also registered a D2H/BSA in assay [2] of 2 ratio.

B2: phage HAX9 (peptide)
peptide: SREEANWDGYKREMSHRSRFWDATHLSRPRRPANSGDPN
notes: pIII and flanks not included
In assay [3], B2 showed an OD of 0.382 OD 650 nm. Also, the HPT/BSA in assay [4] turned out to be 5 ratio.

B3: phage DCX8 (peptide)
peptide: RYKHDIGCDAGVDKKSSSVRGGCGAHSSPPRAGRGPRGTMVSRL
notes: pIII and flanks not included
Consider B3, for which, in assay [1], the OD was found to be 0.163 OD 650 nm. In assay [2], this molecule yielded a D2H/BSA of 3 ratio.

B4: phage DCX26 (peptide)
peptide: SGRTTSEISGLWGWGDDRSGYGWGNTLRPNYIPYRQATNRHRYT
notes: pIII and flanks not included
For the molecule B4, in assay [1], the OD was 0.956 OD 650 nm. The molecule also had a D2H/BSA in assay [2] of 4 ratio.

B5: phage HCA3 (peptide)
peptide: RHISEYSFANSHLMGGESKRKGCGINGSFSPTCPRSPTPAFRRT
notes: pIII and flanks not included
Molecule B5 showed an HPT1/BSA in assay [5] of 1 ratio.

B6: phage HAX42 (peptide)
peptide: SDHALGTNLRSDNAKEPGDYNCCGNGNSTGRKVFNRRRPSAIPT
notes: pIII and flanks not included
B6 registered an OD in assay [3] of 0.32 OD 650 nm. In assay [4], this molecule displayed an HPT/BSA of 5 ratio.

B7: phage DCX11 (peptide)
peptide: SQGSKQCMQYRTGRLTVGSEYGCGMNPARHATPAYPARLLPRYR
notes: pIII and flanks not included
In turn, B7 had an OD in assay [1] of 0.222 OD 650 nm. For the same molecule, the D2H/BSA in assay [2] came to 3 ratio.

B8: phage DCX45 (peptide)
peptide: SVGNDKTSRPVSFYGRVSDLWNASLMPKRTPSSKRHDDG
notes: pIII and flanks not included
The molecule B8 had an OD in assay [1] of 0.336 OD 650 nm. Moreover, the D2H/BSA in assay [2] turned out to be 4 ratio.

B9: phage HAX40 (peptide)
peptide: REFAERRLWGCDDLSWRLDAEGCGPTPSNRAVKHRKPRPRSPAL
notes: pIII and flanks not included; also called H44
Turning to B9, in assay [3], the OD came to 0.991 OD 650 nm. The HPT/BSA in assay [4] was found to be 15 ratio.

B10: phage DCX33 (peptide)
peptide: RWNWTVLPATGGHYWTRSTDYHAINNHRPSIPHQHPTPI
notes: pIII and flanks not included
The molecule B10 displayed an OD in assay [1] of 0.616 OD 650 nm. Besides, in assay [2], the D2H/BSA worked out at 6 ratio.
